Measured values taken from US20190119397A1 (ZIELBIO, published 2019).

Experiments:
[1] = biological target: T1, recombinant human Sec8-His protein (human); assay: in vitro binding assay on recombinant human Sec8-His protein (FIG. 3A)
T1 construct: also called recombinant human C-terminal portion of Plectin-1 protein; pET-10NC-Plec C term
T1 chain: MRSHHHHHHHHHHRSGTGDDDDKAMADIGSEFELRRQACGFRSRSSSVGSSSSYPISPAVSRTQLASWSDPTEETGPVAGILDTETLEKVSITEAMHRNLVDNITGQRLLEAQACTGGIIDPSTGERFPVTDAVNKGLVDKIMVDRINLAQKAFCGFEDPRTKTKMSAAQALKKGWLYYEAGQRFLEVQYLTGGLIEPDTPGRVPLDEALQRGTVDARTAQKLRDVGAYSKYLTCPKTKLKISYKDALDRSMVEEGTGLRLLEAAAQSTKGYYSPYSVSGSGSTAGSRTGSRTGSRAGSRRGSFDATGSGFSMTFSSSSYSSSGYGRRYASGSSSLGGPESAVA

[2] = biological target: plectin-1 on the surface of cancer cells (Homo sapiens, UniProt Q15149 1-4684); assay: cell-based or functional assay
Chain of plectin-1 on the surface of cancer cells (Q15149 whole entry): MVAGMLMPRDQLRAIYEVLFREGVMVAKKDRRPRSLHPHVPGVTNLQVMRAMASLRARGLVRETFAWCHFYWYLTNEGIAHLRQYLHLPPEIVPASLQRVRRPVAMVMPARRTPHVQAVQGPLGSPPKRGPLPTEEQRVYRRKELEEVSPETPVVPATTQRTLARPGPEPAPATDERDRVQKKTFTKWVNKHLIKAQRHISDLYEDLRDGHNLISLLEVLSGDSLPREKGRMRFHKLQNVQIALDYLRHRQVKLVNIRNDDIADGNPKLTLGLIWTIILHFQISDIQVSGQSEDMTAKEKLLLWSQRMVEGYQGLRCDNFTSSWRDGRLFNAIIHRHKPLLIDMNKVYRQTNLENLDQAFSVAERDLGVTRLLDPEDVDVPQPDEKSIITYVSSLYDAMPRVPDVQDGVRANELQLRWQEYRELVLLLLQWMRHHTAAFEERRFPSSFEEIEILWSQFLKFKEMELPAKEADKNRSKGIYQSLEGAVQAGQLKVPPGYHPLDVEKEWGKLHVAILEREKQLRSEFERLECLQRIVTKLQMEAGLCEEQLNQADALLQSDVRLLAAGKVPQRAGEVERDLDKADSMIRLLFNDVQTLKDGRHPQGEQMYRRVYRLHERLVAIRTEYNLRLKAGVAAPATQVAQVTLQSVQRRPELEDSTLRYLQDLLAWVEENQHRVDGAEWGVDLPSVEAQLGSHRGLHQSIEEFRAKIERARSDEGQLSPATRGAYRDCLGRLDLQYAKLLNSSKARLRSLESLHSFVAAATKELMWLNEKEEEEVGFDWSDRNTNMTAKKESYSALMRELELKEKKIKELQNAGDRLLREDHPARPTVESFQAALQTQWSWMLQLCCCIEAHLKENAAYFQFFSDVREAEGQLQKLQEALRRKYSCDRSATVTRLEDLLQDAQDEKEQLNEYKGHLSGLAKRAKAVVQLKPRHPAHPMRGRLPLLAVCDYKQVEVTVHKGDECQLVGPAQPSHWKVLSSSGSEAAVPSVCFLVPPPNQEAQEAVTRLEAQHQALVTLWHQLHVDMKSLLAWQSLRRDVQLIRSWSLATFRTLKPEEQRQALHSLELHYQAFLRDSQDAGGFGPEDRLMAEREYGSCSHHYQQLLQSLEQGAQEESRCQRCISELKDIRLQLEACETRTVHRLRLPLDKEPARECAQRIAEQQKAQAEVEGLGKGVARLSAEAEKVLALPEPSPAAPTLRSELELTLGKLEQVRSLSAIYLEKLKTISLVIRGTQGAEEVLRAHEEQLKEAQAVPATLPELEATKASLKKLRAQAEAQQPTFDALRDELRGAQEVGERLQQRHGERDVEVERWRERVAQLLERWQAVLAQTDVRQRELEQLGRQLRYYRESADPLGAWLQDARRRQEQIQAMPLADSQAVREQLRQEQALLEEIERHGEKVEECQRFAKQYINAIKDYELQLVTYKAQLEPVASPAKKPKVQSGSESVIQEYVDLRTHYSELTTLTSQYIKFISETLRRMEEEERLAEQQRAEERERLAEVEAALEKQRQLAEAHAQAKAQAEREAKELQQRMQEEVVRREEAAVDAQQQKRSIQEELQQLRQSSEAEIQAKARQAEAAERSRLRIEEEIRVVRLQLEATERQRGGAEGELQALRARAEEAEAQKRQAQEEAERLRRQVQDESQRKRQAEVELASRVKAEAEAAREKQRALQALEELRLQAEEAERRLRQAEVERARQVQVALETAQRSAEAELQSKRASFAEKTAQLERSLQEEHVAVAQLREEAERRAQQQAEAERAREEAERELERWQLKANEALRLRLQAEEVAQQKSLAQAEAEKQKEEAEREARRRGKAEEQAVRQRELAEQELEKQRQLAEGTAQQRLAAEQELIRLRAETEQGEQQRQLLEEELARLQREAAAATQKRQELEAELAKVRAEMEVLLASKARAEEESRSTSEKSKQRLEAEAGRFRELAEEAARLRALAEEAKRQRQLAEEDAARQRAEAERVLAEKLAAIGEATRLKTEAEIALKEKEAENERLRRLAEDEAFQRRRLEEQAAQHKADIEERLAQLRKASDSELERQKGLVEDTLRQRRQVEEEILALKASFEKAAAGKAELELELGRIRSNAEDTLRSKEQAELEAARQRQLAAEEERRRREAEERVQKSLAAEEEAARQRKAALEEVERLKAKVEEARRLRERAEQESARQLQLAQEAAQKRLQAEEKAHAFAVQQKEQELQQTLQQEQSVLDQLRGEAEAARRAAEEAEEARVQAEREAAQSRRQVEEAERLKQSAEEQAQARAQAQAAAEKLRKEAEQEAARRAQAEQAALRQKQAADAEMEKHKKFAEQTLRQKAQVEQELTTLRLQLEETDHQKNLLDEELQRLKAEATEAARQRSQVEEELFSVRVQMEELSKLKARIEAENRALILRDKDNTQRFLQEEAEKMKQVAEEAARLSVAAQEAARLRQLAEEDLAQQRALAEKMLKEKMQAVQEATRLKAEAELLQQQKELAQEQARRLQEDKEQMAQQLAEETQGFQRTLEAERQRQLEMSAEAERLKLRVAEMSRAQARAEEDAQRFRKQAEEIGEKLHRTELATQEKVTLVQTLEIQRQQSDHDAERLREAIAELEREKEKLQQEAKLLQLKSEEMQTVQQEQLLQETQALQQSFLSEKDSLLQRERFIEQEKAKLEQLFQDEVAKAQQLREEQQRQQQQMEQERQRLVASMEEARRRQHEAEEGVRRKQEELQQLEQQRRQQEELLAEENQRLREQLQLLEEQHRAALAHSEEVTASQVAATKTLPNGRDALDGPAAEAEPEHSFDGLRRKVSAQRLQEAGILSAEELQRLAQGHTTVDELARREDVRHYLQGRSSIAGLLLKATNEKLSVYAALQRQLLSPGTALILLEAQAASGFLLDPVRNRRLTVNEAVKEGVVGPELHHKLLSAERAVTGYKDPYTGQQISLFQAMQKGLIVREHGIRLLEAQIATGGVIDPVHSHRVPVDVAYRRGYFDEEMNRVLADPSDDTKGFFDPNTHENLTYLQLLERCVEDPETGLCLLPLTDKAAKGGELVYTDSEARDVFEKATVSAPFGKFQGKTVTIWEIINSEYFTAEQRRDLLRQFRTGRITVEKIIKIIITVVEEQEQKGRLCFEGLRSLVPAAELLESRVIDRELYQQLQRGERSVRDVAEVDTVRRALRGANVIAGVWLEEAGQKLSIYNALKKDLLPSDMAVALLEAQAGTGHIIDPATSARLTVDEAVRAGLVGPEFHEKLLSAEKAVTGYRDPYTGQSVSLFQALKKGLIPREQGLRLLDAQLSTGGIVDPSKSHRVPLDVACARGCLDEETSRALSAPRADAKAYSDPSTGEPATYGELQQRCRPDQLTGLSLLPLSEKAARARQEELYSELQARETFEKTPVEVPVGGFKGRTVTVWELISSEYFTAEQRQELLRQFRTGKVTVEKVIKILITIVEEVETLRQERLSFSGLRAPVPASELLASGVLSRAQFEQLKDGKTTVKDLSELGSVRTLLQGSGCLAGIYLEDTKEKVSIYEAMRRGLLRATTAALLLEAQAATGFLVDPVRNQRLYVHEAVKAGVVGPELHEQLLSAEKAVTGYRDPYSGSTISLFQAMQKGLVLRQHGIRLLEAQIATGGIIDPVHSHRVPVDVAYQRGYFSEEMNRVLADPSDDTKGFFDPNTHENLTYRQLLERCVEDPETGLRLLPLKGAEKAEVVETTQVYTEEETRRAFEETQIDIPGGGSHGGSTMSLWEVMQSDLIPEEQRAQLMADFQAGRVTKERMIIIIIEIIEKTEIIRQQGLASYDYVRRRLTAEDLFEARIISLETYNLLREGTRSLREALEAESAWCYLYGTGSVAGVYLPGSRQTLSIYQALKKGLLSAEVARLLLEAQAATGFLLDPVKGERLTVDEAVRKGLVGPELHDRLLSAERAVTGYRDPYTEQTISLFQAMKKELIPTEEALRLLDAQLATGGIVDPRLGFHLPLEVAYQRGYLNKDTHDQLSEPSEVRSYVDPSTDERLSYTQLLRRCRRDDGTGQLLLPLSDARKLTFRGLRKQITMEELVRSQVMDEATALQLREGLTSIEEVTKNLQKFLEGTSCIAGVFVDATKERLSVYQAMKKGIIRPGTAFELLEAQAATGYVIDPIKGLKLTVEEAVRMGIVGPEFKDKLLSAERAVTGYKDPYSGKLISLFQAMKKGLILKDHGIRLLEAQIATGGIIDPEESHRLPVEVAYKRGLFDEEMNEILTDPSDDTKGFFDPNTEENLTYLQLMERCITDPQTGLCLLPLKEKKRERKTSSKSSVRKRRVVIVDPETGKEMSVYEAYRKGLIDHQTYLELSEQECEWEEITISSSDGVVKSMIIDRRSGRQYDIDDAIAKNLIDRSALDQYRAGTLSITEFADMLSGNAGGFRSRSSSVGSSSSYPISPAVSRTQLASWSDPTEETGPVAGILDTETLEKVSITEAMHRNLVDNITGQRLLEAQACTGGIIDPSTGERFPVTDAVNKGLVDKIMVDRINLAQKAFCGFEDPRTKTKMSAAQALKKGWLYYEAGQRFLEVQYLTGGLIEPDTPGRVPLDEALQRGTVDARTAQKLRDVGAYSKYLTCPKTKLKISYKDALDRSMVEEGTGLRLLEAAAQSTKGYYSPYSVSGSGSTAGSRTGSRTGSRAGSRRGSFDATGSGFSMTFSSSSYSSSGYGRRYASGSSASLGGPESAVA

Kd [1]: < 1 nM
B1: PAb1 (antibody, mouse IgG2b, kappa, V domains shown)
VH: QIQLVQSGPELKKPGETVKISCKASGYTFTDYSMHWVKQAPGKGLKWMGWINTETGEPTYADDFKGRFAFSLETSASTAYLQINNLKNEDTATYFCAPGGFAYWGQGTLVTVSA
VL: DIVMTQAAPSVPVTPGESVSISCRSSKSLLHSNGNTYLYWFLQRPGQSPQLLIYRMSNLASGVPDRFSGSGSGTAFTLRISRVEAEDVGVYYCMQHLEYPLTFGAGTKLELKR
notes: Mouse hybridoma monoclonal antibody; also called Plectin-1 mAb; Plectin-1mAb
Plectin-1mAb EC50 (nM): concentration of mAb that reduced cell viability by 50%, L3.6pl cells, 72 hours [2]: 34 nM
Plectin-1mAb EC50 (nM): concentration of mAb that reduced cell viability by 50%, OVCAR8 cells, 72 hours [2]: 63 nM
Plectin-1mAb EC50 (nM): concentration of mAb that reduced cell viability by 50%, SKOV3 cells, 72 hours [2]: 53 nM
Plectin-1mAb EC50 (nM): concentration of mAb that reduced cell viability by 50%, YapC cells, 72 hours [2]: 43 nM
